Reference: US10131920B2, “Nucleic acid molecules” (MEDIMMUNE LIMITED, priority 2013, dated 2018)

What was measured:
[1] = system: GFPY40 reporter in 3H7 cells; assay: Amber suppression-dependent GFP expression (GFPY40 reporter), transient transfection of 3H7 cells, flow cytometry; type: cell-based; details: three days; for GFP MFI, FIG. 11: 1 ug GFPY40 and 1 ug tRNA expression vector, lys-azide; for GFP MFI in the absence of nnAA, FIG. 6: no nnAA
Method: To assess the function of the tRNA variants, an in vitro assay was established where cells are transiently transfected with a tRNA construct and a reporter construct encoding GFP containing an amber codon interrupting its reading frame (GFPY40). HEK293 cells stably expressing pylRS were transiently transfected with various tRNA constructs (1 ug) and the GFPY40 reporter (1 ug). In the absence of elements that support amber suppression, a truncated GFP protein is generated and the cell is not fluorescent. However, the introduction of a functional tRNA and the presence of a nnAA that supports amber suppression allows for the production of full length GFP resulting in fluorescent cells. The level of GFP expression reflects the efficiency of amber suppression and is quantified by flow cytometry. tRNA genes encoding wild type tRNApyl (WT tRNA), or containing mutations in the B-box (B tRNA—SEQ ID No 9), in both the A and B box (A2B tRNA—SEQ ID No 10), or in the A box (A1 tRNA-SEQ ID No 7; or A2 tRNA SEQ ID No 11), all under control of the H1 promoter were generated by site directed mutagenesis and assayed. The H1 promoter ensured that the variants were expressed and allowed us to examine the functional effects of the mutations introduced into the tRNA genes. In addition a sample transfected with GFPY40 alone was generated to establish background GFP levels. The transfected cells were grown in presence of the aminoacid analogue lys azide (2 mM) and incubated for 18 hours. GFP fluorescence was then assayed by flow cytometry and mean fluorescence intensity determined for each sample. Data were analysed with FCS Express and the mean fluorescence intensity of each sample determined using markers that constrain the data set to cells showing fluorescence above negative controls. […] The constructs thus are functional and may contain the necessary genetic sequence to enable the expression of the tRNA also in the absence of an upstream promoter element such as the H1 promoter.
Having established that the B mutation introduced into the pyltRNA sequence enabled expression of the tRNA that supported amber suppression we then asked whether this mutation affected the orthogonality of the tRNA and led to the incorporation of natural amino acids. To do this 3H7 cells were transiently transfected with expression constructs encoding WT-tRNA, B-tRNA, H1-tRNA and H1-B tRNA along with the GFPY40 reporter. Transfected cells were grown in the presence of 2 mM lys azide or absence of nnAA as indicated (FIG. 6), and GFP expression assessed by flow cytometry after three days. In addition, a sample transfected only with GFPY40 was examined to determine background amber suppression levels in the absence of tRNA. […] A comparison of GFP expression between the WT tRNA (MFI 33,781) and tRNA B (232,505) lacking extragenic promoter elements confirms that the B mutation generates a functional intragenic promoter. Indeed, the B tRNA construct enabled a seven-fold increase in the level of amber suppression dependent expression of GFP over WT tRNA.
We also tested the utility of a bicistronic tRNA expression construct for its ability to express tRNApyl. Here, the murine tRNA Glu and tRNA Asp were utilized. In each case, multiple repeats of the constructs were generated to increase activity (3×Glu-pyl and 2×Asp-pyl). Here, 3H7 cells were transiently transfected with 1 ug of the reporter construct GFPY40 and 1 ug of the indicated tRNA expression vectors (FIG. 11) and incubated with lys-azide for three days. Data were collected by flow cytometry and mean fluorescence intensities for each sample were plotted. […] The construct consisting of the 7SL WT tRNA (MFI=312) was included as a metric for low efficiency. In addition cell lines containing only the GFPY40 reporter were used as negative controls (MFI=0).

[2] = system: GFPY40 reporter (GFP containing an amber codon) in HEK293 cells stably expressing pylRS; assay: Amber suppression-dependent GFP expression (GFPY40 reporter), transient transfection, flow cytometry; type: cell-based; details: for GFP MFI, FIG. 9: 1 ug GFPY40 reporter and 1 ug tRNA expression plasmid; for GFP MFI, FIG. 10: cells stably expressing WTpylRS, lys azide
Method: To assess the function of the tRNA variants, an in vitro assay was established where cells are transiently transfected with a tRNA construct and a reporter construct encoding GFP containing an amber codon interrupting its reading frame (GFPY40). HEK293 cells stably expressing pylRS were transiently transfected with various tRNA constructs (1 ug) and the GFPY40 reporter (1 ug). In the absence of elements that support amber suppression, a truncated GFP protein is generated and the cell is not fluorescent. However, the introduction of a functional tRNA and the presence of a nnAA that supports amber suppression allows for the production of full length GFP resulting in fluorescent cells. The level of GFP expression reflects the efficiency of amber suppression and is quantified by flow cytometry. tRNA genes encoding wild type tRNApyl (WT tRNA), or containing mutations in the B-box (B tRNA—SEQ ID No 9), in both the A and B box (A2B tRNA—SEQ ID No 10), or in the A box (A1 tRNA-SEQ ID No 7; or A2 tRNA SEQ ID No 11), all under control of the H1 promoter were generated by site directed mutagenesis and assayed. The H1 promoter ensured that the variants were expressed and allowed us to examine the functional effects of the mutations introduced into the tRNA genes. In addition a sample transfected with GFPY40 alone was generated to establish background GFP levels. The transfected cells were grown in presence of the aminoacid analogue lys azide (2 mM) and incubated for 18 hours. GFP fluorescence was then assayed by flow cytometry and mean fluorescence intensity determined for each sample. Data were analysed with FCS Express and the mean fluorescence intensity of each sample determined using markers that constrain the data set to cells showing fluorescence above negative controls.
To begin to assess whether the tRNA mutations can support expression of the tRNA we assayed tRNA constructs encoding the wild type tRNA in the absence of the H1 promoter. Constructs encoding wild type tRNApyl (WT tRNA) or containing mutations in the B-box (B tRNA—SEQ ID No 9) or in both the A and B box (A2B; A2B tRNA—SEQ ID No 10) were assayed using our in vitro amber suppression assay described above. WT tRNA under control of the H1 promoter (H1-tRNA) was used as a positive control, and in addition one sample was transfected only with the GFPY40 reporter to illustrate background amber suppression in the absence of tRNA. The transfected cells were exposed to 2 mM lys-azide nnAA and cells incubated for three days. GFP expression was examined by flow cytometry and mean fluorescence intensity determined.
Two copies of the WT, B, or A2B tRNA were cloned in tandem to generate a single vector containing two copies of WT, B, or A2B tRNA. To assess the effect of increased gene doses by these constructs, cells expressing WTpylRS were transiently transfected with the tRNA constructs and the GFPY40 reporter construct and GFP expression assayed after two days.
The activity of each construct was assessed by transient transfection into cells stably expressing WT pylRS with the GFPY40 reporter as described above. For this experiment, 1 ug of a PCR product encoding each of the indicated constructs was used. In each case, cells were exposed to the lys azide nnAA for three days and GFP levels assayed by flow cytometry. Mean fluorescence intensities were determined for each sample and plotted (FIG. 8).

[3] = 2 mM lys-azide nnAA, three days

Molecule | GFP MFI, FIG. 11 [1] | GFP MFI, FIG. 9 [2] | GFP mean fluorescence intensity (MFI), FIG. 5 [2, 3] | fold higher expression of GFP than the wt tRNA construct (FIG. 5) [2, 3] | capacity to support amber suppression relative to H1 WT tRNA (FIG. 4) ([2]; all tRNA variants under control of the H1 promoter, 1 ug construct + 1 ug GFPY40, lys azide 2 mM, 18 hours) | GFP MFI, single copy tRNA, FIG. 7 ([2]; cells expressing WTpylRS, after two days, single copy) | GFP MFI, tandem copies of tRNA, FIG. 7 ([2]; cells expressing WTpylRS, after two days, single vector containing two copies in tandem) | GFP MFI, FIG. 10 ([2]; three days) | GFP MFI in the presence of lys-azide, FIG. 6 ([1]; 2 mM lys azide) | increase in amber suppression dependent expression of GFP over WT tRNA (FIG. 6) ([1]; 2 mM lys azide) | GFP MFI in the absence of nnAA, FIG. 6 [1] | GFP MFI, FIG. 8 ([2]; 1 ug PCR product of each construct, lys azide nnAA, three days)
3×Glu: three tandem repeats of the murine tRNA glu and pyltRNA bicistronic pair (nucleic acid, Synthetic sequence 3x tRNAglu-pyl DNA construct including 3 repeats of the bicistronic construct tRNAglu-tRNApyl, three tandem repeats of the murine tRNA glu and pyltRNA bicistronic pair) DNA: GCCGTGACCTCGGGCCGACGCTCCCTGGTGGTCTAGTGGTTAGGATTCGGCGCTCTCACCGCCGCGGCCCGGGTTCGATTCTCGGTCAGGGAAGCCTCTCCCCCAAACCTCGGAAACCTGATCATGTAGATCGAATGGACTCTAAATCCGTTCAGCCGGGTTAGATTCCCGGGGTTTCCGCTTCTTCCTCTTTTCTGCACCCTCACTTCAGCTGAGCCGTGACCTCGGGCCGACGCTCCCTGGTGGTCTAGTGGTTAGGATTCGGCGCTCTCACCGCCGCGGCCCGGGTTCGATTCTCGGTCAGGGAAGCCTCTCCCCCAAACCTCGGAAACCTGATCATGTAGATCGAATGGACTCTAAATCCGTTCAGCCGGGTTAGATTCCCGGGGTTTCCGCTTCTTCCTCTTTTCTGCACCCCAATATTGCCGTGACCTCGGGCCGACGCTCCCTGGTGGTCTAGTGGTTAGGATTCGGCGCTCTCACCGCCGCGGCCCGGGTTCGATTCTCGGTCAGGGAAGCCTCTCCCCCAAACCTCGGAAACCTGATCATGTAGATCGAATGGACTCTAAATCCGTTCAGCCGGGTTAGATTCCCGGGGTTTCCGTAGCGTCCTTTTTGGAAAGACAAGTGGGTGGCGAATTCGATATC | 419 |  |  |  |  |  |  |  |  |  |  | 
2×Asp: two tandem repeats of the murine tRNA asp-pyl tRNA bicistronic pair (nucleic acid, Synthetic sequence 2x tRNAasp-pyl DNA construct including 2 repeats of the bicistronic construct tRNAasp-pyl, two tandem repeats of the murine tRNA asp-pyl tRNA bicistronic pair) DNA: TCCTCGTTAGTATAGTGGTGAGTATCCCCGCCTGTCACCCGCGAGACCGGCGTTCCATTCCCCGACGGGGAGACGTAGCCCCACCTCGGAAACCTGATCATGTAGATCGAATGGACTCTAAATCCGTTCAGCCGGGTTAGATTCCCGGGGTTTCCGTAGCGTCCTTTTTGGAAAGACAAGGTGCGTCGTAGTCGGCGTTGTCCTCGTTAGTATAGTGGTGAGTATCCCCGCCTGTCACCCGCGAGACCGGCGTTCCATTCCCCGACGGGGAGACGTAGCCCCACCTCGGAAACCTGATCATGTAGATCGAATGGACTCTAAATCCGTTCAGCCGGGTTAGATTCCCGGGGTTTCCGTAGCGTCCTTTTT | 419 |  |  |  |  |  |  |  |  |  |  | 
B tRNA: tRNApyl Methanosarcina mazei with A52C mutation (B-box) (nucleic acid, expressed or natural sequence) DNA: GGAAACCTGATCATGTAGATCGAATGGACTCTAAATCCGTTCAGCCGGGTTCGATTCCCGGGGTTTCCG |  | 89,869 | 410,131.1 | four-fold | support amber suppression, albeit at a lower level than the WT tRNA | 67,489 | 110,941 | 329 | 232,505 | seven-fold | 42,104 | 
H1-tRNA: WT tRNApyl under control of the H1 promoter, positive control (nucleic acid, Synthetic sequence H1 tRNA-WT construct) DNA: AATATTTGCATGTCGCTATGTGTTCTGGGAAATCACCATAAACGTGAAATCCCTATCAGTGATAGAGACTTATAAGTTCCCTATCAGTGATAGAGACACCAGGAAACCTGATCATGTAGATCGAATGGACTCTAAATCCGTTCAGCCGGGTTAGATTCCCGGGGTTTCCGGACAAGTGCGGTTTTTTT | 453 | 241,901 | 1,004,228.00 |  |  |  |  | 453 | 347,958 |  | 33,452 | 828,503
H1-B tRNA: tRNA-B (A52C) under control of the H1 promoter (nucleic acid, Synthetic sequence H1 tRNA-B construct, tRNA-B (A52C) under control of the H1 promoter) DNA: AATATTTGCATGTCGCTATGTGTTCTGGGAAATCACCATAAACGTGAAATCCCTATCAGTGATAGAGACTTATAAGTTCCCTATCAGTGATAGAGACACCAGGAAACCTGATCATGTAGATCGAATGGACTCTAAATCCGTTCAGCCGGGTCAGATTCCCGGGGTTTCCGGACAAGTGCGGTTTTTTT |  |  |  |  |  |  |  |  | 313,386 |  | 36,217 | 
